# Measured values as given in patent US20240377408A1 (ENCODIA, published 2024).
# Ends that are not written are not given here. * marks the point of attachment. Benzoyl(4-SO2NH2) = NS(=O)(=O)c1ccc(C(=O)*)cc1; M65 = not defined here; M67 = not defined here; M75 = not defined here; M76 = not defined here; M88 = not defined here
# B1: (SAB)AAAAE (peptide)
# peptide: {Benzoyl(4-SO2NH2)}-AAAAE-NH2
# SMILES: C[C@H](NC(=O)c1ccc(S(N)(=O)=O)cc1)C(=O)N[C@@H](C)C(=O)N[C@@H](C)C(=O)N[C@@H](C)C(=O)N[C@@H](CCC(=O)O)C(N)=O
# B2: (SAB)SAAAE (peptide)
# peptide: {Benzoyl(4-SO2NH2)}-SAAAE-NH2
# SMILES: C[C@H](NC(=O)[C@H](C)NC(=O)[C@H](CO)NC(=O)c1ccc(S(N)(=O)=O)cc1)C(=O)N[C@@H](C)C(=O)N[C@@H](CCC(=O)O)C(N)=O
# B3: (SAB)EAAAE (peptide)
# peptide: {Benzoyl(4-SO2NH2)}-EAAAE-NH2
# SMILES: C[C@H](NC(=O)[C@H](C)NC(=O)[C@H](CCC(=O)O)NC(=O)c1ccc(S(N)(=O)=O)cc1)C(=O)N[C@@H](C)C(=O)N[C@@H](CCC(=O)O)C(N)=O
# B4: (SAB)HAAAE (peptide)
# peptide: {Benzoyl(4-SO2NH2)}-HAAAE-NH2
# SMILES: C[C@H](NC(=O)[C@H](C)NC(=O)[C@H](Cc1c[nH]cn1)NC(=O)c1ccc(S(N)(=O)=O)cc1)C(=O)N[C@@H](C)C(=O)N[C@@H](CCC(=O)O)C(N)=O
# B5: (SAB)AFAAE (peptide)
# peptide: {Benzoyl(4-SO2NH2)}-AFAAE-NH2
# SMILES: C[C@H](NC(=O)c1ccc(S(N)(=O)=O)cc1)C(=O)N[C@@H](Cc1ccccc1)C(=O)N[C@@H](C)C(=O)N[C@@H](C)C(=O)N[C@@H](CCC(=O)O)C(N)=O
# B6: (SAB)FAAAE (peptide)
# peptide: {Benzoyl(4-SO2NH2)}-FAAAE-NH2
# SMILES: C[C@H](NC(=O)[C@H](C)NC(=O)[C@H](Cc1ccccc1)NC(=O)c1ccc(S(N)(=O)=O)cc1)C(=O)N[C@@H](C)C(=O)N[C@@H](CCC(=O)O)C(N)=O
# B7: (SAB)LAAAE (peptide)
# peptide: {Benzoyl(4-SO2NH2)}-LAAAE-NH2
# SMILES: CC(C)C[C@H](NC(=O)c1ccc(S(N)(=O)=O)cc1)C(=O)N[C@@H](C)C(=O)N[C@@H](C)C(=O)N[C@@H](C)C(=O)N[C@@H](CCC(=O)O)C(N)=O
# Key:
# [1] = target: T1, human carbonic anhydrase 2 (wild-type hCAII) (Homo sapiens, UniProt P00918 4-259); experiment: cell-based or functional assay
# [2] = target: T1, human carbonic anhydrase 2 (wild-type …); experiment: cell-based or functional assay; remark: listed apart in the source
Binder,"NTM-AAEIR IC50 (µM), colorimetric IC50 assay (pNPA hydrolysis by wild-type hCAII) [1]","IC50 (µM), hCAII functional assay (p-nitrophenyl acetate hydrolysis) [2]"
M76-AAEIR (reading uncertain; also: printed as M76-AAEIR) [M76-AAEIR],0.077 µM,–
M88-AAEIR (reading uncertain; also: printed as M88-AAEIR) [M88-AAEIR],0.095 µM,–
M65-AAEIR (reading uncertain; also: printed as M65-AAEIR) [M65-AAEIR],0.515 µM,–
B1,–,0.0484 µM
B2,–,0.153 µM
B3,–,0.0993 µM
B4,–,0.148 µM
B5,–,0.183 µM
B6,–,0.045 µM
B7,–,0.0284 µM
M67-AAEIR (reading uncertain; also: printed as M67-AAEIR) [M67-AAEIR],0.073 µM,–
M75-AAEIR (reading uncertain; also: printed as M75-AAEIR) [M75-AAEIR],0.067 µM,–
